Patent US10597433B2, “Peptides and combination of peptides for use in immunotherapy against small cell lung cancer and other cancers” (Immatics Biotechnologies GmbH, priority 2015, dated 2020)

Biological target: HLA-A*02:01 (Homo sapiens, UniProt P04439, D140Y/D185E/D98H/E176V/E277Q/G131W/G231S/I119V/I121R/I166T/I218V/L300P/L318F/N151K/N90K/P208A/P217A/Q86G/Q94H/R138H/R169H/T345S)
Assay: MHC binding assay: UV-ligand exchange with ELISA detection of β2m of stabilized MHC complexes
Conditions: binding to HLA-A*02:01
Description: Candidate peptides for T cell based therapies according to the present invention were further tested for their MHC binding capacity (affinity). The individual peptide-MHC complexes were produced by UV-ligand exchange, where a UV-sensitive peptide is cleaved upon UV-irradiation, and exchanged with the peptide of interest as analyzed. Only peptide candidates that can effectively bind and stabilize the peptide-receptive MHC molecules prevent dissociation of the MHC complexes. To determine the yield of the exchange reaction, an ELISA was performed based on the detection of the light chain (β2m) of stabilized MHC complexes. The assay was performed as generally described in Rodenko et al. (Rodenko et al., 2006).
96 well MAXISorp plates (NUNC) were coated over night with 2 μg/ml streptavidin in PBS at room temperature, washed 4× and blocked for 1 h at 37° C. in 2% BSA containing blocking buffer. Refolded HLA-A*02:01/MLA-001 monomers served as standards, covering the range of 15-500 ng/ml. Peptide-MHC monomers of the UV-exchange reaction were diluted 100 fold in blocking buffer. Samples were incubated for 1 h at 37° C., washed four times, incubated with 2 μg/ml HRP conjugated anti-β2m for 1 h at 37° C., washed again and detected with TMB solution that is stopped with […]. Absorption was measured at 450 nm. Candidate peptides that show a high exchange yield (preferably higher than 50%, most preferred higher than 75%) are generally preferred for a generation and production of antibodies or fragments thereof, and/or T cell receptors or fragments thereof, as they show sufficient avidity to the MHC molecules and prevent dissociation of the MHC complexes.

Row | Peptide exchange (MHC class I binding score, peptide exchange yield) | Substance
1 | +++ (≥50 = +++) | 101 (AMNSQILEV; listed as Homo sapiens) [compound 101]
2 | ++++ (≥75% = ++++) | 102 (ALFARPDLLLL; listed as Homo sapiens) [compound 102]
3 | +++ (≥50 = +++) | 122 (SMMPDELLTSL; listed as Homo sapiens) [compound 122]
4 | ++++ (≥75% = ++++) | 95 (ALYSKGILL; listed as Homo sapiens) [compound 95]
5 | +++ (≥50 = +++) | 86 (KVIDYVPGI; listed as Homo sapiens) [compound 86]
6 | + (≥10% = +) | 126 (AAASLIRLV; listed as Homo sapiens) [compound 126]
7 | ++++ (≥75% = ++++) | 107 (AMYGTKLETI; listed as Homo sapiens) [compound 107]
8 | ++++ (≥75% = ++++) | 78 (RIIDPEDLKALL; listed as Homo sapiens) [compound 78]
9 | +++ (≥50 = +++) | 97 (ALLDGTVFEI; listed as Homo sapiens) [compound 97]
10 | ++++ (≥75% = ++++) | 117 (FLLDSAPLNV; listed as Homo sapiens) [compound 117]
11 | +++ (≥50 = +++) | 92 (YLQDYTDRV; listed as Homo sapiens) [compound 92]
12 | +++ (≥50 = +++) | 93 (ALRETVVEV; listed as Homo sapiens) [compound 93]
13 | +++ (≥50 = +++) | 124 (SLITDLQTI; listed as Homo sapiens) [compound 124]
14 | +++ (≥50 = +++) | 112 (LLLPGVIKTV; listed as Homo sapiens) [compound 112]
15 | ++++ (≥75% = ++++) | 99 (QMLEAIKALEV; listed as Homo sapiens) [compound 99]
16 | +++ (≥50 = +++) | 84 (KMFENEFLL; listed as Homo sapiens) [compound 84]
17 | +++ (≥50 = +++) | 89 (IQHDLIFSL; listed as Homo sapiens) [compound 89]
18 | +++ (≥50 = +++) | 118 (KLPSFLANV; listed as Homo sapiens) [compound 118]
19 | ++++ (≥75% = ++++) | 109 (SLFERLVVL; listed as Homo sapiens) [compound 109]
20 | +++ (≥50 = +++) | 90 (TLVDNISTMAL; listed as Homo sapiens) [compound 90]

More lines, now with the values behind:

Row | Substance | Peptide exchange (MHC class I binding score, peptide exchange yield)
21 | 41 (KAYQELLATV; listed as Homo sapiens) [compound 41] | +++ (≥50 = +++)
22 | 62 (VMLPIGAVVMV; listed as Homo sapiens) [compound 62] | +++ (≥50 = +++)
23 | 68 (FLFPVYPLI; listed as Homo sapiens) [compound 68] | +++ (≥50 = +++)
24 | 27 (SLDIITITV; listed as Homo sapiens) [compound 27] | ++++ (≥75% = ++++)
25 | 32 (ALTSLELEL; listed as Homo sapiens) [compound 32] | +++ (≥50 = +++)
26 | 25 (GLSETILAV; listed as Homo sapiens) [compound 25] | ++++ (≥75% = ++++)
27 | 59 (VLLSGLTEV; listed as Homo sapiens) [compound 59] | ++++ (≥75% = ++++)
28 | 44 (ALIVGIPSV; listed as Homo sapiens) [compound 44] | ++++ (≥75% = ++++)
29 | 63 (LLMSTENEL; listed as Homo sapiens) [compound 63] | +++ (≥50 = +++)
30 | 69 (KLFDRSVDL; listed as Homo sapiens) [compound 69] | ++ (≥20% = ++)
31 | 50 (FLLSQIVAL; listed as Homo sapiens) [compound 50] | +++ (≥50 = +++)
32 | 23 (YQIDTVINL; listed as Homo sapiens) [compound 23] | +++ (≥50 = +++)
33 | 14 (ILIETKLVL; listed as Homo sapiens) [compound 14] | +++ (≥50 = +++)
34 | 71 (FIFEQVQNV; listed as Homo sapiens) [compound 71] | +++ (≥50 = +++)
35 | 17 (SLMLVTVEL; listed as Homo sapiens) [compound 17] | +++ (≥50 = +++)
36 | 42 (GLLEDERALQL; listed as Homo sapiens) [compound 42] | +++ (≥50 = +++)
37 | 43 (YLWSEVFSM; listed as Homo sapiens) [compound 43] | +++ (≥50 = +++)
38 | 16 (VILDLPLVI; listed as Homo sapiens) [compound 16] | +++ (≥50 = +++)
39 | 51 (ILDEAGVKYFL; listed as Homo sapiens) [compound 51] | +++ (≥50 = +++)
40 | 73 (SLSSYTPDV; listed as Homo sapiens) [compound 73] | +++ (≥50 = +++)
41 | 36 (RMDGAVTSV; listed as Homo sapiens) [compound 36] | +++ (≥50 = +++)
42 | 21 (TMEEMIFEV; listed as Homo sapiens) [compound 21] | +++ (≥50 = +++)
43 | 9 (AAAPGEALHTA; listed as Homo sapiens) [compound 9] | ++ (≥20% = ++)
44 | 74 (FLDSLSPSV; listed as Homo sapiens) [compound 74] | +++ (≥50 = +++)
45 | 53 (LLSEEHITL; listed as Homo sapiens) [compound 53] | ++++ (≥75% = ++++)
46 | 77 (AIIDGKIFCV; listed as Homo sapiens) [compound 77] | +++ (≥50 = +++)
47 | 56 (SLFSQMGSQYEL; listed as Homo sapiens) [compound 56] | +++ (≥50 = +++)
48 | 70 (TLLWKLVEV; listed as Homo sapiens) [compound 70] | ++ (≥20% = ++)
49 | 22 (LLPEKSWEI; listed as Homo sapiens) [compound 22] | +++ (≥50 = +++)
